Source: PMC5134462, “Electrochemical Aptasensor for Myoglobin-Specific Recognition Based on Porphyrin Functionalized Graphene-Conjugated Gold Nanocomposites”

Biological target: T1, myoglobin (human, UniProt P02144 2-154)
T1 sequence: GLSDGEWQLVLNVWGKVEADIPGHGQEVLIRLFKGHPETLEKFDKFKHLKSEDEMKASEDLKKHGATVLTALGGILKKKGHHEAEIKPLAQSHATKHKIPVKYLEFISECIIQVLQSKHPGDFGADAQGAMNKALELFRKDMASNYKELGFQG
Assay: electrochemical aptasensor (DPV); aptamer immobilized on TCPP-Gr/AuNPs/GCE; 45 min incubation; 1.47e-10 M myoglobin; LOD 6.7e-12 M, linear 2.0e-11 to 7.7e-7 M (not Kd); Aptamer dissolved in T-buffer: 20 mM Tris-HCl, 0.10 M NaCl, 5.0 mM MgCl2, 10 mM TCEP, pH 7.4; binding buffer and temperature not given in the material
Conditions: protein: native; label: ferrocene (3')

## CCCTCCTTTCCTTCGACGTAGATCTGCTGCGTTGTTCCGA (ssDNA, 5' SH-(CH2)6; 3' ferrocene (Fc)) [MbBA (myoglobin-binding aptamer)]
  binding result: binds
